In patent publication US20240117030A1 (Pfizer, published 2024):
Positions count from the first letter of the chain named. Values belong to the binder of their own block, whether it stands above or below them.

Legend:
Assay in all cases: cell-based or functional assay
recombinant human IL-13 [1] = target: recombinant human IL-13 (human, UniProt P35225 35-146)
recombinant human IL-4 = target: T1, recombinant human IL-4 (human, UniProt P05112 25-153)
T1 sequence (looked up): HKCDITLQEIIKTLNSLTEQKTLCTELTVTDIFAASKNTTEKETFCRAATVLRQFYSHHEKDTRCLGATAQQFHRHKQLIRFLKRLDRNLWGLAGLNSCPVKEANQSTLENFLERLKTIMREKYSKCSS

[2] = target: recombinant human TSLP (glycosylated long form) (human, UniProt Q969D9 29-159)
recombinant human IL-13 [3] = target: recombinant human IL-13 (human, UniProt P35225 35-146); remark: listed apart in the source
recombinant human IL-33 = target: T2, recombinant human IL-33 (human, UniProt O95760 112-270, limits assumed)
T2 sequence (looked up): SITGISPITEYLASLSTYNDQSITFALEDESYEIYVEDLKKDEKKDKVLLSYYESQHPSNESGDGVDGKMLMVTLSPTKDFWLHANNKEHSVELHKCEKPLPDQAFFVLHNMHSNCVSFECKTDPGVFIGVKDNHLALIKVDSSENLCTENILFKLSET

B1: IL13-1307 (antibody, human IgG1, kappa, V domains shown)
VH: EVQLVESGGGLVQPGGSLRLSCAASGFTFSSYAMSWVRQAPGKGLEWVASISSGDTTYYPDSVKGRFTISRDNAKNSLYLQMNSLRAEDTAVYYCARLDGYYFGFPYWGQGTLVTVSS
VL: DIQMTQSPSSLSASVGDRVTITCKASESVDHSGSSLMHWYQQKPGKAPKLLIYRASNLESGVPSRFSGSGSGTDFTLTISSLQPEDFATYYCQQSNEDPWTFGGGTKVEIKR
IC50 (median), Monocyte CD23 expression (recombinant human IL-13 [1]): 306 pM
IC50 (median), STAT6 phosphorylation in HT-29 cells (recombinant human IL-13 [1]): 140 pM

B4: IL33-158-152 (antibody, human IgG1, kappa, V domains shown)
VH: EVQLVESGGGLVQPGGSLRLSCAASGFTFSSYWMYWVRQAPGKGLEWVAAITPNAGEDYYPESVKGRFTISRDNAKNSLYLQMNSLRAEDTAVYYCARGHYYYTSYSLGYWGQGTLVTVSS
VL: DIQMTQSPSSLSASVGDRVTITCKASQNINKHLDWYQQKPGKAPKLLIYFTNNLQTGVPSRFSGSGSGTDFTLTISSLQPEDFATYYCFQYNQGWTFGGGTKVEIKR
IC50 (mean), HEK-Blue IL-33 SEAP (recombinant human IL-33): 42.9 pM

B5: IL33-0726 (antibody, human IgG1, kappa, V domains shown)
VH: B4 VH with H100Q, S105K
VL: B4 VL with K24R, N28P, N30H, K31N, T51G, N52K, T56E, N92K, Q93K, T96S
IC50 (mean), HEK-Blue IL-33 SEAP (recombinant human IL-33): 8.27 pM

Other lines, results leading:

a-hIL-4 bioassay IC50, pM) (recombinant human IL-4): 7.09 pM
a-TSLP TARC bioassay (IC50; pM) [2]: 11.7 pM
a-hIL-13 bioassay (IC50, pM) (recombinant human IL-13 [3]): 46.8 pM
B2: IL413TSLP-0007 (other)
heavy: EVTLRESGPALVKPTQTLTLTCTFSGFSLSNFGEGLSWIRQPPGKGLEWLAHIYWDDDKRYNPSLKSRLTISKDTSRNQVVLTMTNMDPVDTATYYCARRETVFYWYFDVWGQGTTVTVSSASTKGPSVFPEAPSSKSTSGGTAALGCLVKDYFPEPVTVSWNSGALTSGVHTFPAVLQSSGLYSLGSVVTVPSSSLGTQTYICNVNHKPSNTKVDKKVEPKSCDKTHTCPPCPAPEAAGAPSVFLFPPKPKDTLMISRTPEVTCVVVDVSHEDPEVKFNWYVDGVEVHNAKTKPREEQYNSTYRVVSVLTVLHQDWLNGKEYKCKVSNKALPAPIEKTISKAKGQPREPQVYTLPPCREEMTKNQVSLSCAVKGFYPSDIAVEWESNGQPENNYKTTPPVLDSDGSFFLVSKLTVDKSRWQQGNVFSCSVMHEALHNHYTQKSLSLSPGK
chain 1: SYVLTQPPSVSVAPGQTARITCGGNNLGSKSVHWYQQKPGQAPVLVVYDDSDRPSWIPERFSGSNSGNTATLTISRGEAGDEADYYCQVWDSSSDHVVFGGGTKLTVLASTKGPSVFPLAPSSKSTSGGTAALGCLVKDYFPEPVTVSWNSGALTSGVHTFPAVLQSSGLYSLSSVVTVPSSSLGTQTYICNVNHKPSNTKVDKKVEPKSCGGGGSEVQLVESGGGLVQPGGSLRLSCAASGFTFSSYAMSWVRQAPGKGLEWVASISSGDTTYYPDSVKGRFTISRDNAKNSLYLQMNSLRAEDTAVYYCARNEGYYFGLTLWGQGTLVTVSSASTKGPSVFPKAPSSKSTSGGTAALGCLVKDYFPEPVTVSWNSGALTSGVHTFPAVLQSSGLYSLSSSVTVPSSSLGTQTYICNVNHKPSNTKVDKKVEPKSCDKTHTCPPCPAPEAAGAPSVFLFPPKPKDTLMISRTPEVTCVVVDVSHEDPEVKFNWYVDGVEVHNAKTKPREEQYNSTYRVVSVLTVLHQDWLNGKEYKCKVSNKALPAPIEKTISKAKGQPREPQVCTLPPSREEMTKNQVSLWCLVKGFYPSDIAVEWESNGQPENNYKTTPPVLDSDGSFFLYSKLTVDKSRWQQGNVFSCSVMHEALHNHYTQKSLSLSPGK
light 1: DIQMTQSPSSLSASVGDRVTITCKASQSVDEDGDSYMNWYQQKPGKAPKLLIYAASNLESGVPSRFSGSGSGTDFTLTISSLQPEDFATYYCQQSNEDPPTFGGGTKVEIKRTVAAPSVFIFPPSDEQLKSGTASVSCLLNNFYPREAKVQWKVDNALQSGNSQESVTEQDSKDSTYSLKSTLTLSKADYEKHKVYACEVTHQGLSSPVTKSFNRGEC
light 2: B2 light 1 with Q27E, E31H, D32F, D34W, Y36L, M37V, N38H, A54R, P100W, K180D
chain 2: QMQLVESGGGVVQPGRSLRLSCAASGFTFRTYGMHWVRQAPGKGLEWVAVIWYDGSNKHYADSVKGRFTITRDNSKNTLNLQMNSLRAEDTAVYYCARAPQWELVHEAFDIWGQGTMVTVSSGQPKAAPSVTLFPPSSEELQANKATLVCLISDFYPGAVTVAWKADSSPVKAGVETTTPSKQSNNKYAASSYLSLTPEQWKSHRSYSCQVTHEGSTVEKTVAPTECS

a-hIL-4 bioassay IC50, pM) (recombinant human IL-4): 9.07 pM
a-TSLP TARC bioassay (IC50; pM) [2]: 17.7 pM
a-hIL-13 bioassay (IC50, pM) (recombinant human IL-13 [3]): 10.6 pM
B3: IL413TSLP-0008 (other)
heavy: EVQLVESGGGLVQPGGSLRLSCAASGFTFSSYAMSWVRQAPGKGLEWVASISSGDTTYYPDSVKGRFTISRDNAKNSLYLQMNSLRAEDTAVYYCARNEGYYFGLTLWGQGTLVTVSSASTKGPSVFPKAPSSKSTSGGTAALGCLVKDYFPEPVTVSWNSGALTSGVHTFPAVLQSSGLYSLSSSVTVPSSSLGTQTYICNVNHKPSNTKVDKKVEPKSCDKTHTCPPCPAPEAAGAPSVFLFPPKPKDTLMISRTPEVTCVVVDVSHEDPEVKFNWYVDGVEVHNAKTKPREEQYNSTYRVVSVLTVLHQDWLNGKEYKCKVSNKALPAPIEKTISKAKGQPREPQVCTLPPSREEMTKNQVSLWCLVKGFYPSDIAVEWESNGQPENNYKTTPPVLDSDGSFFLYSKLTVDKSRWQQGNVFSCSVMHEALHNHYTQKSLSLSPGK
chain 1: SYVLTQPPSVSVAPGQTARITCGGNNLGSKSVHWYQQKPGQAPVLVVYDDSDRPSWIPERFSGSNSGNTATLTISRGEAGDEADYYCQVWDSSSDHVVFGGGTKLTVLASTKGPSVFPLAPSSKSTSGGTAALGCLVKDYFPEPVTVSWNSGALTSGVHTFPAVLQSSGLYSLSSVVTVPSSSLGTQTYICNVNHKPSNTKVDKKVEPKSCGGGGSEVTLRESGPALVKPTQTLTLTCTFSGFSLSNFGEGLSWIRQPPGKGLEWLAHIYWDDDKRYNPSLKSRLTISKDTSRNQVVLTMTNMDPVDTATYYCARRETVFYWYFDVWGQGTTVTVSSASTKGPSVFPEAPSSKSTSGGTAALGCLVKDYFPEPVTVSWNSGALTSGVHTFPAVLQSSGLYSLGSVVTVPSSSLGTQTYICNVNHKPSNTKVDKKVEPKSCDKTHTCPPCPAPEAAGAPSVFLFPPKPKDTLMISRTPEVTCVVVDVSHEDPEVKFNWYVDGVEVHNAKTKPREEQYNSTYRVVSVLTVLHQDWLNGKEYKCKVSNKALPAPIEKTISKAKGQPREPQVYTLPPCREEMTKNQVSLSCAVKGFYPSDIAVEWESNGQPENNYKTTPPVLDSDGSFFLVSKLTVDKSRWQQGNVFSCSVMHEALHNHYTQKSLSLSPGK
light 1: B2 light 1 with Q27E, E31H, D32F, D34W, Y36L, M37V, N38H, A54R, P100W, K180D
light 2: B2 light 1
chain 2: B2 chain 2
